Experiment: soluble fraction after stress (log2 fold change); higher = more stays soluble; pooled small domains, quantitative proteomics
Conditions: stress: 75 degC
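Further: 20 min heating vs room temperature control held 20 min.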

Row | Sequence | soluble fraction (log2)
1 | HMKKEETEAEELEEKFTSAQIKQAYGILNDPRYKQGNYSGAVNVINKIAPGLADHPDVKNALKRANEEL | 0.809
2 | HMKKGRIGSIIQYVREHPGVSSSEIITGLGLDISPATIRRDLTLLVAENKLSVEGQNKGTKYFVSPTYDMF | -1.22
3 | HMKKIDVEVVRSQLIAWMADNGKSQAEVSKSMGISASALSMFIKGTYTGDNEQIGRKAAALMDLVHRQSA | -1.41
4 | HMKKILITGNSGYIGSHLSKMLENDYEVHGLDIRQPQHPVAKFYEQDINRPINIEEEYDAVIHLAALV | -0.348
5 | HMKKILLGDVNLDGKVDVNDVTLLQRYIAGETEVITSKDALTATNFNKDGNIDVLDVTDIQTFIANSE | -0.293
6 | HMKKLTNKQIIFFAEKLAHHSDFASKYSKVGESYEEFAIRLEKELNTPQKVEFYSSYLEKVGFK | -2.54
7 | HMKKPKTVLSEEQKEFIINQAQDGVSAYDIARILFPSVNVTNLSKEVIDVAEFIRDTDIKLLADSE | 0.00266
8 | HMKKPRKTSRKSIENAAIFYLQRFSSSIENLRRVLMRRVYRSAQYHNTKPEEDAKIVDSIIYRLIETGVL | -0.322
9 | HMKKSRLHSVLEEIPGIGEKRRKILIKHFGTVEAIKKSSLEELARIKGMNRRAAQNVLEYLK | -0.775
10 | HMKKVIKIEENVSLQKLAALMSLKVTDVLMRLLSMGMSGVNINSTIDADTAKILASEFGWTVED | -0.529
11 | HMKKVKVPNVVGMSLKEARDALSAVNIAVNQVAGSVEDKSVVTEQSLKAGDEVDEGSSLNLTTEYK | 0.878
12 | HMKKYLTETEAAAYLNMPVEEIKAAITKGEIEQYVKTSSGYTISVEELDKFFGQKAYDTMTSNNS | 0.0786
13 | HMKLASIGDNIHTLRKNKGLTQSQLAGKLGVNVDTISNYEKGVSTPDFDIVEKLVNIFNVDAHSLLFK | -0.287
14 | HMKLEKKWIEAVEKYRRYVLSTGIKHVQKPIEFENFRLGQWYADVRQSYRRGTLSKEKLLEIREINPDFPN | -2.17
15 | HMKLFGTPGSPFARKVRIVLEEKRIPHEYIIERGSAPGSRVPQYNPLGKVPTLVLDDGRGLYDSPVIVEYL | -0.531
16 | HMKLGYTVHGNVVTVKAVANGISLYNTIGQKVAESTDGQTVKAPAHGVYILSVQGKSGSRETAKIVI | -1.67
17 | HMKLHQDLQIKVIDAANNKVEFIDTATGTSLATRTLDVNGVSKARGFEATLYGVVEDNDVFHIA | 0.121
18 | HMKLIRIPFILTEGPDSQKITIDVDGDEEFRLGDVFEEDDKLWTVNQILVSGERKAKRSMAGEVMRISALR | -1.2
19 | HMKLNEQSMQVIDRIVDRHRGRPGPVKLMLHDVQKELGYIPFEAMEKIAAASGVSADEVYGVVTFYTQFTT | -0.919
20 | HMKLNETIAEARKRKGLTQEQLAQKLYVTRQAVSRWERGEVVPGIDMLKLIAITLEEPIVHLL | -1.64
21 | HMKLQIQNIEIDKKISELAEGVSAEKLPFLAKLIDRSKLLNDKGEINEDSVKAAIEEVVKAFPDFK | 0.0511
22 | HMKLRKINLIGIFGSKTAPSALVRLTNGRVLKVGLGELLDGGRVTAIGRSSLTYNKSGKSITLNMPI | -4.08
23 | HMKLRYRTQEELLGVAREYRRRGLPLSVIVIDFYHWTKFGDWKFDPAYWPDPVGMVRELRDMGVEAAV | -0.17
24 | HMKLSKKVTDFLAQMPSKSISPKMLANNLGLADDAGDYKHLLKTIAQLEESKAIEVTAAGNIALPQPE | -0.162

Row | Sequence | soluble fraction (log2)
25 | HMKLSLKTQVKEYLLSYIRDKKLQPGDRLLTQRELAEMLHTSQKVAQMALNSLEEEGIIIRRLGSGSFLAR | -1.31
26 | HMKLTKPQEVFIQELLKGSSQYEAYLKAYPSKKTWKRNSIDTEASKLFKNAKIKQRYEELLYNIREE | -0.695
27 | HMKLTNNDFIRLKTFMYNNYGINLENKKTLIETRLAIVVKRLGFNDFKSYIDNLMRDKTGEQASIIVGKLT | -2.83
28 | HMKLTPKQQQIYDFISSFADEHGYPPSVREIAQAVNLKSPATVHFHLKGLREAGYISQAEGKTRAITI | -0.158
29 | HMKMDGESQRLLSLIKEQGGSLPIGDKSSPEAIYRLTQMSKKTFKMALGSLYKAKQVVLSPTEVRL | -1.45
30 | HMKMNFNEEEQKLLSEANVLVETNKTYTDDEVKGFSNKIVEHIMTFSKTDIPKVKSKFDPILFKI | -0.359
31 | HMKMTIEDLITQAKESNAAENYYEAFQLYSKAIDVLPNDPDLYSARGVVLFHLDRKEDSLIDMNKSVD | -0.17
32 | HMKMVEIDYGKFLTMLDTGKVKSVEIENNRIAINPSSSKDKNIYITGRMDDPELVDRLKNAKVEFTKVIP | -0.0753
33 | HMKNAYDLKMLVKDNDGNIERNMKYYFFLANGSKVEGITDDNGYTKTITTIQPEKADLHLINDELI | -1.61
34 | HMKNDIQLKHDVEEELQWDPAVDASRFAVQAKDGVVTLSGGVDTFADKHAAEEAIRRVAGVTALVIHVDV | -0.27
35 | HMKNEFRVYPNPANKEIVTFNQTQDIEVYDTLGKLVLKAKNTNTLDTKSFHSGIYFIKTGSGLTRKLVV | -1.09
36 | HMKNEQESIAQKLYEAALKNDFVTIQEIQSGGYRLRNDDLTHMRESGVQSNTLIAIQKIFGL | 0.404
37 | HMKNEQIFIVRPDAEGTRLDQWLAAQMASSEEAPSRMQIQRWIKAGLVEGQGTLNPARRIEAGESYTVKPG | 0.0684
38 | HMKNEYAMVIQVNGKLRGNMLVSADLEQKDIERMALDNEDIKRFISHENDVKKMIFVPKKLINIVT | -1.21
39 | HMKNIFDWLKQINYHKQPADSFTEKDWELFNSYMVHRFMSMNREFIEVVNYVQEMPPQEKILIYNIYREF | -2.16
40 | HMKNIINFIVKEDDNNKRVDMILANHDKSLSRTRVKNLILDSKLKINERIVQDPSIKTKLNDKIELEIVEP | 0.631
41 | HMKNIINLVIDGELHGKRIDAVIAQKNDSLSRTRIKNLVINGNLSINDEIVSDPSKKIYKDDKVSLTIPLP | -0.322
42 | HMKNIMRQWIELEPDQGKIRSKLYSLDRVVEETTNEVGMIKLLLEIDEKELNNLVSHNDIRLV | -0.425
43 | HMKNIRKQAIEAIDRIKNGNPIVISKNAKLIFKNIAKEANVSPTELHREFRDVMLYVNSLKAP | -0.346
44 | HMKNKVTVPKVEGMDKEEAIQALNEVGLGYKAVMQSSDSVAEGKVISQGTAAGKKVDKNTQIIITVSGG | 0.237
45 | HMKNLADNIVALRKKHGLSQEQFAEKIDVTRQAVSNWERRIATPDVETIDLIAKLFDTDLTALVNG | -0.342
46 | HMKNLKLVSNTDGIRIDSWLADEFEDYSRSYLRKLIDQDLVYVNGNKIKANYKLKKGDEISISIPEPE | -0.151
47 | HMKNLTERQQQIIALISGNPLITRAEIASAIGFSVKTIERELSILSEIVSYVGSKKGGHWEIQT | -2.66
48 | HMKNLTERQQRIIALISENPQTTRAEIAGAIGVATKTIERELTTLSNIVYYVGPKKGGHWEIIK | -1.51

Row | Sequence | soluble fraction (log2)
49 | HMKNLTEVEYSEFLESIAQDRVSKVQVDGLIIRGEMNDGQRFETVQPQVTDKALIDDMVNHRVDFSGARP | 0.295
50 | HMKNMSLGERIKEQRKSSGLSQEKVAEFVGVSRQAVTKWETGQSAPSTENLFKLAEIFGTTVDILLA | -0.198
51 | HMKNNAIAPDQVVSLLKNEVNYNDDGRIEILDNNKNIRYNSKGELLTIEERVNEFLDANPHFRK | 0.0664
52 | HMKNSMANVQARREKILSAVDQSEPVAVEGLAQRFNVSITTLRRDLKALSDMGQVKWHHGLVERT | -0.229
53 | HMKNVADEVFEKMLNMIIEGDWKKGEMIPSENELREAFSVSRSTVRQAVQRLSALGIVRSRQGKGTYVEQV | -1.7
54 | HMKNYYELLGVAREASQDQIKKAYRKLARKYHPDVSKEADAETRMQELNVAYDTLSDAEKKREYDFQLDHP | 0.0883
55 | HMKPDDDMLLKILTKLFIQKQFVINSKDIFQYILKNTNRTYENIINIVNRLDTLSIEKKRQLTIPLIKEI | -0.585
56 | HMKPEQIELTFSGTTAMRLDKFLAENQPGLSRAKLQAIISSGSVEVNGKVITKQAFKLDPGDLVKALIPE | -1.23
57 | HMKPGWEDIFRMNQIQLEDAVRTVNRDDTLAPTKKAYLIQNLLASRWIVGNQLQAQKDKTTE | -0.126
58 | HMKPGYVIQVNGTVTKIQSGLVYVKTPAAQYTLMRKYAPADAAVGDRVSLWINEEGMVIDVHGK | -2.03
59 | HMKPKDILLPNFTNLTLDEAKAKAEEVKLNLNVSEEKYDVQIEEGKIISQDPKYQPNYTVKEGSTVNVVVS | ≥ 1.04
60 | HMKPLIIPLELMQRLSSDKQLEAGFNRFSKSKQHEFAAYIAAAKRVETKVKRLEKIIPLILSGEGLNDR | -2.35
61 | HMKPLRPVHLEIQTHRLSPVGILRSSFRQAGKVMHSNHGRITGLNLEQLKLIQAAFAGEALPK | -0.158
62 | HMKPQIRRHEKITALVREHGFMSVEQLARELEVTPQTIRRDIGILSAENVLRRYHGGAALGD | -0.941
63 | HMKPSNLTSDERTQLLAQLKTAMGSDQYNQLRRQVGEEKLLEYVLDNVPGIQEEILGNRAVQENIDLH | 0.0107
64 | HMKPSTVSVPDVSGDKLSTAKMIIRKSGLKVGDVQKIEDDNVGAGKVVRTNPSAGSKKREGSSVDIFVASA | -0.0331
65 | HMKPTVKGHFTRKESNVGGYADVRGWGVAGTPSMMANQSKDTRRFSTLIVPGRSVNVHPSPTKEAIIWWQS | -0.224
66 | HMKPTVKKLLAALPELRSGQPLHLSVATRKLRDAGLLGKNASSPTLFRNYVAQFELIPENQPNAVRYR | -0.786
67 | HMKPVSEMDNMEWVREQYFQNMIYEIGEWVKDKKTGIVGEIVKRGTNYVTIVQEDFSLHKIWLEDLETTE | -0.428
68 | HMKQDYYSILGVMRDASQEEIKRAYLDAAQRLHPDRNTSAGDTEMFLDVQQAYEVLSNPKRRAQYDATLP | 0.383
69 | HMKQEFEMGLPNGVGEQMLAHAIEKFDVKLEHSEFGPKLIGTYEELEKAKVFLYEAIEARLNQLE | 0.279
70 | HMKQISNTDELETMVKKIIDDNEEQVNKYRGGNEKLFGWFVGQAMKNTGGTANPKVVNEILSKLLK | -0.0646

Source: the domain aggregation screens of Martell et al. (2025)
